Test: soluble on expression in E. coli; label from the status in PepcDB or PDB records

Soluble on expression in E. coli, not soluble:
METPMHDEEESDSLNTSHLSDVELDDLVTTKFVEEFKNLKIADDSLEVVRDVGSPLNQALSPIERRNSDEFLLEDHPSLVRPIKDIFQRDEAMLLKNRILDASDEILKTNFMWNMFERSKKWRNTSHSSEVSLLDSLFQMVDRRPVLLHISCSRLTENDISCMIRKSLLDVAAQPRQKTVFRVTIKTEMPLKQFLGQLAMLLSTSPTIKFECAPVTALMKNLDGSMRKFYTAEVENFAEAELGLLSMSHLSPMNASARFKFTMNEKPFVTVNVGYHSNIDQCRRQKTIVIEQTVDGTVPARRVTFGFPLVSRVEEYELDEGLPFIPLRNSTKVFDLSQHFGNVQALPKVLDLKNIVFK, METSDERLAGAAAEGDRGAFALLVERHYDRIFGLSWRLTGSRTEAEDLAQDICAALPMKLRGWRGEARFTTWLYRVVVNASHDLRRRQSAHSRAAAGWGDWELARQDEIGEARAAEEWLAAAMTALPVELRDTVALVLGEEMTQAEAGAVLGLAEGTVAWRMSEVKKRLRAMALREARA, MEVEAFAHSVAPLAPRLKRVAYSILDDEEAAADVSQEALMRLWINRERLGGYDSIEAVAVTTARRIALDMLRKEGRMEPLPDDLPFSDHAPTPQGVLEQSETMRLVEAAIEALPPLQRMTFRLKEIEGYESEVIARLVGVKVEAVYTNLSRARRALRTALALQLKR, MEYKLHNGSGGLCCKGCSRQDKKLNTYDWLADIPGNAEECDMVEVQFKNTRKGYYRNSNKIKLEKGDIVAVEAAPGHDIGVVTLTGRLVPLQMKKANFKTDVEIKRIYRKAKPVDMEKFNEAKAKEHATMIRARQIALNLNLDMKIGDVEYQGDGNKAIFYYIADERVDFRQLIKVLAEAFRVRIEMKQIGARQEAGRIGGIGPCGRELCCATWMTSFVSVSTSAARFQDISLNPQKLAGQCAKLKCCLNYEVDCYVEAQKRLPSKEIELETKDGTFYFFKADILSNHVSYSTDKNFPANLVTISGKRAFEVIAMNKKGMKPDSLLEAEVKQESKKPIDLLEQESLTRFDRNRNNKDGNNGNRNKKKRKGNNDNRPQAQAESGNRPQQPQRGENENRPQPSENGNRGERGDRENRPRNNNNNNRNRGQNQGRNNENRRPERGQNQERPQNPNRPQNQERSQNQERPVNQERNQERNQERPQNRERQPKQERPQNQERPQEQGRQPNQERIPRPERNSNQEKPQNNEKPAQE, MEYRMFDIGVNLTSSQFAKDRDDVVACAFDAGVNGLLITGTNLRESQQAQKLARQYSSCWSTAGVHPHDSSQWQAATEEAIIELAAQPEVVAIGECGLDFNRNFSTPEEQERAFVAQLRIAADLNMPVFMHCRDAHERFMTLLEPWLDKLPGAVLHCFTGTREEMQACVAHGIYIGITGWVCDEPTRTGAAGTFAVDSGGKITDRNLEHHHHHH, MEYSRDSAEMMMETKRNVYSLEDNKIKRHKSSDLSFSSKERKDKLAERISALQQLVSPYGKTDTASVLLEGMQYIQFLQEQVKVLSAPYLQATPSTTEEEVEEYSLRSKGLCLVPLEYTSEVAQTNGADIWAPVKTPTSSHAFNLSSSNSPFQ, MFDKHTHTLIAQRLDQAEKQREQIRAISLDYPEITIEDAYAVQREWVRLKIAESRTLKGHKIGLTSKAMQASSQISEPDYGALLDDMFFHDGSDIPTDRFIVPRIEVELAFVLAKPLRGPNCTLFDVYNATDYVIPALELIDARCHNIDPETQRPRKVFDTISDNAANAGVILGGRPIKPDELDLRWISALMYRNGVIEETGVAAGVLNHPANGVAWLANKLAPYDVQLETGQIILGGSFTLPVPARKGDTFHVDYGNMGSISCRFV, MFDPREKIALFIDGANLYAASKSLGFDIDYRKLLKAFQKRGYLLRAYYYTALIEDQEYSSIRPLIDWLDYNGYKVVTKPAKEFTDSLGRRKIKGNMDIELAIDAMEQSESVDHLVIFSGDGDFTTLVEALQRKGRKVSVVSTMSTQPPMIADDLRRQADHFIDLATLRGEIGREPSERVQRPVEPVADDVEL, MFGKYKVSVIIPAYNEEKRIGNVLARIPDFVDEVIVIDDGSSDATYEVAKRYTDKAIRLNKNMGKGAALREGLRHASGDIIVFMDADGQHNPKEIPKLLEPIIKGKADFVIGKRIIKTGKRPLPRKLSNFITTTLIRLKTKQRIEDSQSGFRAIRREFVPEITSDRYEVETEVLIKAVKKGARITEVPVSTRYDLKTGKFRVEDIIRFLIALIKSLEHHHHHH, MFGLVDAVSFYARAEKVFDPSIRHKPVVVLTNNDGCICAVCPIARQLGVPKFVPYFKVKSFLAKHGVVVRSSNYELYADLSERMMNVIARYSDNHYVYSIDESFLHFKNFSCVDNWHEYGHVIRKAVWRETRLPVGVGFGATLTLAKAANHASKKLSGFDGVAVIDDKASRKEILSRMSLTEVWGIGSKLGKRLSILGLKNGWDLANQSPKAMRGQFGVVVERTVNELNGMPCLQWDEIGQDKQEIFSTRSFGQRVTDGHALKAALSSHASIVGAKVRRQGSLIKRLVIFASSSPHDDSYYKKSVIYEFPIATDNILKLVGAISYVFDNIYRQGVSFYRCGVGGVELENSQFQQQDMFSLSVNNPPLMKCYDQINHRYGRGAVEVAIAEKNEKWAMRRNFLSPRSTSNWSEIPKINCLEHHHHHH, MFIPVIMAGGSGSRLWPLSRSAFPKQFLSLDSSSQHTMLQATIERLQGLPIAEPIVISNEDHRFIVAEQIRRYGKKSRIILEPAGRNTAPAIALAAFTAIEQEDDPVLLVLAADHFVKNKSAFQAAISQAAQQAEAGKLATFGIVPTTPETGYGYIHRGEEVTQGTYEINSFVEKPQLNIAEQYLASGEYYWNSGCFMFKASVFLNELKQHSPEIYRQCELAMQGLSHDYDFIRVGVEEFLKCPDDSIDYAVMEHTKLGVVVSMDAGWSDVGSWSALWEVSDKDADGNVCQGDAILSGTSNCYIYAPNKLVAAVGLKDIVVVETKDAVLVADKNQVQEVKKIVEHLKAENRAEYREHRERYRPWGKSDAIDKGERYKVNRITVEPGKKQSLQMHYHRAEHWVVVSGTAKVTCEGNVKVITENQSLYIPIGTNHMIENPGKIPLELIEIQSGSYLNEDDVVRFEDK

Soluble on expression in E. coli, soluble:
MEVDKKDEREAESSEQVVNPWEVSAKDGGKIDYDKLIDKFGCQRLDESLIDRVQRLTSRQPHVFLRRSVFFAHRDFNEILDAYERGDKFYLYTGRGPSSEALHLGHLIPFMFTKYLQEAFKVPLVIQLTDDEKSIWKNLSVEESQRLARENAKDIIACGFDVTKTFIFSDFDYVGGAFYKNMVKVGKCVTLNKAMGIFGFSGEDPIAKLSFPPVQAVPSFPSSFPHLFPGKDNLRCLIPCAIDQDPYFRMTRDVAPRLGYSKPALIESTFFPALQGENGKMSASDPNSAIYVTDSAKDIKNKINRYAFSGGQDSIEKHRELGANLEVDIPVKYLSFFLEDDSELEHIKKEYGEGRMLTGEVKKRLTEVLTEIVERHRRARAAVTDEMVDAFMAVRPLPSMFE, MEVHAADQYLVAPGEADLLEVHARLAGTGLFPPFPPVELPGGVGGLVARGGFAQTFFFPAEVLGLTFRTPKGRRVRAGGVVVKNVQGYDLVRLFVGSFGLLGRAEEVVLRLRPGRAQAFLRRPFSGSFPRLVPTPRFLFALEDEEGPWLYAYHFGHPKEVERFREAFGGEEARPLDLRPRFPRGLGLGEGPLWDLRFRYQDGGASPPPPPAFLRLARVL, MEVKLPELGDNVTQATVVGVLVKEGDRVEPGQPLLELETDKAVVEVPAEAGGVVKRVLVKVGDEVRPGQPFLELAEAEGGAEAPPLKAEERPEAPAPKAEEAPRPAPKEAPPAPQEAPSERRLIPAAPSIRRLARELGVDLTRLRGTGLAGRITEEDVRRAAGLGEAAPAALPAAPAPRLPDFTKWGPVRREPMSGVRKATVRSMSQAWAQVPMVTHFDEADVTELEALRKQYAKKAEEKGFRLTLTAFLLKALALTLKAFPKFNASLDVEAQEIVYKDYIHIGVAVDTPHGLLVPVIRDVDRKGVLRLAEELQEISQRARERKLSPEEMQGATFSLSNLGGIGGTGFTPIVNWPEVAILGVSRSQMKPLWDPGKEAFVPRLVMPFSLTYDHRLIDGADAARFCRHLAGILEDPLGLALA, MEYKDATHTTATQTVHYVNQDGDKVFDDDTSQTLNYERGVTIDEVTGEVISYGDWTPVDGDEFGSVTSPDKPGYAVDTKVVSGEKPEITNGKDGKVNDVEVTVTYTASNEDATLEHHHHHH, MFCLETTFLIDLLRGRDEALKFYAKIRDSKLYTTSISAWELLRGPKLIGKDKEFEVAVELLESLDVLPFSFNSAKIAVEIEKDLREKGMEVNLIDVLIASVAMEHSLKLVTRDEHFSRIKGLEVERYRPE, MFDVVAVGELLIDFLPAGTNENGMPLFSSNPGGAPANVLAMLSKLGAKTAFIGKVGKDGFGQFLKATLDNAGIDTSNLLMSSSEMTTLAFVHLNEKGDRSFSFYRKHCADVSLDAGELDKDLLRTCHFLHFGAVSLTDEPSRTATLEAARIAKEAGAIISYDPNYRPALWSNEHEARKYMLKAVEYADLVKVSEEELWLLAESEDFSKGAHKLLAMGPSVVFVTCGEKGSYVFTGSCKANHCGYDVKVVDTTGAGDAFVGAMLWQLRGMSLEEISQICEQKWGELLAFSNAAGTIVATKKGAIPAMPDLDTINTFMRQFLEEK, MFDYTDFPEQRQSKIRLILSEEGKVVCTQLSRELNVSEHTIRRDLKELAQSGACKRVYGGAVSLPPEAIDFASRATIDAAQKDRIAQAVIPLIKPNGCVFFDTGTTNLAVAKQIPAGLKFTAVCNSPIIAAELMQHQDVEVIVLGGRIQKEVGGAIGIDTLRQLEKMYFDQCLLGGCAFDANEGLTVFEYDDAEFKKCLVTRSSEVIVALTANKISALTRYRVAECDEITTLVTDDEISPASQSVLKEKNLDVIIARLEHHHHHH, MFFKQFYEDNFSQASYLIGCQRTGEAMIIDPIRDLTKYLKVADKEGFTITKAAETHIHADFASGIRDVANKLNASIYVSDEGKDEFNYKNMPKQTHFVKHQDIIYLGKIKLEVLHTPGHPPESISFLLTDEGGGSSIPMGLFSGDFIFVGDVGRPDLLEKAVNVEGSTKIGAKQMYQSIQFAATLPDYIQIWPGHGAGSPCGKALGSLPTTTLGYEKINNWAFNVKDETSFIETLTLNQPAPPHHFSQMKKINQFGMQMYQPYNVYPSSSNTQTAFDLRSKEAFHGGHMHGTINIPFNKTFINQIGWYLDYDLEHHHHHH, MFIPSIYLHQQLHYCKTAILNWSRKMALSRQKFTFERLRRFTLPEGKKQTFLWDADVTTLACRATSGAKAFVFQSVYAGKTLRMTIGNINDWKIDDARAEARRLQTLIDTGIDPRIAKAVKIAEAESLQAESRKTKVTFSVAWEDYLQELRTGISAKTKRPYSTRYIADHINLSSRGGESKKRGQGPTSAGPLASLLNLPLSELTPDYIAAWLSTERQNRPTVTAHAYRLLRAFIKWSNYQKKYQGIIPGDLAQDYNVRKMVPVSASKADDCLQKEQLKSWFSAVRSLNNPIASAYLQVLLLTGARREEIASLRWSDVDFKWSSMRIKDKIEGERIIPLTPYVSELLNVLAQSPNSDVNKEGWVFRSNSKSGKIIEPRSAHNRALVLAELPHISLHGLRRSFGTLAEWVEVPTGIVAQIMGHKPSALAEKHYRRRPLDLLRKWHEKIETWILNEAGITIKNNVDMR

Reference: the DeepSol protein solubility set
